From the supplement of paper PMC7125110
± gives the standard error. Variants at the floor of the assay were thinned out.

B1: glmS ribozyme (parent)
chain: AUAAAAGCGCCAGAACUACAGAAAUGUAGUUGACGAGGAGGAGGUUUAUCGAAUUUUCGGCGGAUGCCUCCAAA

Columns and labels:
Settings in all cases: with glucosamine-6-phosphate
glucosamine-6-phosphate [1] = variants of: B1; assay: self-cleavage kobs at 40 uM GlcN6P; higher = faster cleavage; RNA array
Method in brief: (§1)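 In situ transcription by E. coli RNA polymerase produced barcoded ribozyme variants on sequenced MiSeq chips, and a hybridised Cy3 probe tracked them at 37 °C. Glucosamine-6-phosphate was flowed in at 40 μM to 10 mM in HEPES/KCl/Mg(OAc)2 buffer. kcat and KM were taken from weighted Michaelis–Menten fits of kobs values from exponential decay fits.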

glucosamine-6-phosphate [2] = variants of: B1; assay: self-cleavage kobs at 160 uM GlcN6P; higher = faster cleavage; RNA array
Method in brief: as §1

glucosamine-6-phosphate [3] = variants of: B1; assay: self-cleavage kobs at 640 uM GlcN6P; higher = faster cleavage; RNA array
Method in brief: as §1

glucosamine-6-phosphate [4] = variants of: B1; assay: self-cleavage kobs at 2500 uM GlcN6P; higher = faster cleavage; RNA array
Method in brief: as §1

glucosamine-6-phosphate [5] = variants of: B1; assay: self-cleavage kobs at 10000 uM GlcN6P; higher = faster cleavage; RNA array
Method in brief: as §1

Variant | self-cleavage kobs at 40 uM GlcN6P (glucosamine-6-phosphate [1]) [s⁻¹] | self-cleavage kobs at 160 uM GlcN6P (glucosamine-6-phosphate [2]) [s⁻¹] | self-cleavage kobs at 640 uM GlcN6P (glucosamine-6-phosphate [3]) [s⁻¹] | self-cleavage kobs at 2500 uM GlcN6P (glucosamine-6-phosphate [4]) [s⁻¹] | self-cleavage kobs at 10000 uM GlcN6P (glucosamine-6-phosphate [5]) [s⁻¹]
G7A G35A A53C | < 1e-05 | < 1e-05 | < 1e-05 | < 1e-05 | –
G7A A12C U30G | < 1e-05 | – | – | – | –
G7A A33U A52U C70U | < 1e-05 | – | – | < 1e-05 | –
G7A U56G | < 1e-05 | – | < 1e-05 | – | –
A6U C11G G29C U45C | < 1e-05 | – | – | – | –
G7C C10U U30A U46A | < 1e-05 | – | – | – | –
G7C A52C | < 1e-05 | < 1e-05 | < 1e-05 | < 1e-05 | –
A6U G26A A48U A52G | < 1e-05 | < 1e-05 | – | – | –
A6U C11U C16A U30C C50G | 0.000167 ± 2.9e-05 | – | – | 0.000224 ± 9e-05 | 0.000181 ± 2.9e-05
G7C C34U G35A G37U A42U G43U C71A | < 1e-05 | – | < 1e-05 | – | –
G7A A36C U54G | < 1e-05 | – | – | – | < 1e-05
G7A A15G G51U C58G A64U C70A | 0.000522 ± 0.00019 | – | – | – | 0.000462 ± 0.00017
G7A G13U U55C | < 1e-05 | – | – | – | < 1e-05
G7A A12G U30C U49A C71U | < 1e-05 | – | – | – | –
A6U G9U A15C U30A U49C | < 1e-05 | – | – | – | –
A6U G9A U65G C70A | < 1e-05 | – | – | – | –
G7A C8G A12C | < 1e-05 | – | – | – | –
G7C A33U G41A U56A C71U | < 1e-05 | – | – | – | –
A6U G9A A33G C68U C71G | 0.000234 ± 0.0001 | – | – | – | 4.24e-05 ± 1.8e-05
G7A C10U U45G C70G | < 1e-05 | – | < 1e-05 | < 1e-05 | < 1e-05
G7A A12C G51C A53G G66A | < 1e-05 | – | – | – | –
G7C A33U | < 1e-05 | < 1e-05 | – | < 1e-05 | < 1e-05
G7C A33G | < 1e-05 | < 1e-05 | < 1e-05 | – | < 1e-05
G7C A12G | < 1e-05 | – | – | < 1e-05 | < 1e-05
A6U G13A A14U | < 1e-05 | < 1e-05 | – | – | < 1e-05
A6U C34U C58U | < 1e-05 | – | – | – | –
G7A G43U | < 1e-05 | < 1e-05 | < 1e-05 | < 1e-05 | < 1e-05
G7A C58G | < 1e-05 | < 1e-05 | < 1e-05 | – | –
